Data on 1 substance can be found in article PMC5797133.

Experiment [1] deals with short-chain dehydrogenase/reductase from Serratia marcescens BCRC 10948 (Serratia marcescens BCRC 10948). The experiment is described as follows: crystal structure; apo form, 1.47 Å, space group P4(1)2(1)2; sitting drop, 20 °C, 50 mM HEPES pH 7.0, 40% tacsimate pH 7.0, 2 mM spermine, 2 mM hexamine cobalt (III) chloride; homodimer AB in the asymmetric unit, tetramer by two-fold crystallographic symmetry.

For experiment [2] the target is unchanged. Description: SEC; size-exclusion chromatography of the purified SmSDR; single peak; conditions not given. For orientation: In gel filtration, larger molecules generally elute earlier.

As usually defined, the stoichiometry N is the number of molecules, sites or subunits per partner or assembly. Regarding “short-chain dehydrogenase/reductase from Serratia marcescens BCRC 10948 (enzyme)”, the stoichiometry N in experiment [1] and in experiment [2] was 4 in each case.
